From patent US20170247475A1 (Boehringer Ingelheim, published 2017)
Read-outs that look alike come from different tables or passages of the source.

Experiments:
hAng2 = molecular target: T1, hAng2; experiment: competition ELISA, blocking of hAng2 binding to hTie2
T1 construct: also called human Ang2
T1 chain: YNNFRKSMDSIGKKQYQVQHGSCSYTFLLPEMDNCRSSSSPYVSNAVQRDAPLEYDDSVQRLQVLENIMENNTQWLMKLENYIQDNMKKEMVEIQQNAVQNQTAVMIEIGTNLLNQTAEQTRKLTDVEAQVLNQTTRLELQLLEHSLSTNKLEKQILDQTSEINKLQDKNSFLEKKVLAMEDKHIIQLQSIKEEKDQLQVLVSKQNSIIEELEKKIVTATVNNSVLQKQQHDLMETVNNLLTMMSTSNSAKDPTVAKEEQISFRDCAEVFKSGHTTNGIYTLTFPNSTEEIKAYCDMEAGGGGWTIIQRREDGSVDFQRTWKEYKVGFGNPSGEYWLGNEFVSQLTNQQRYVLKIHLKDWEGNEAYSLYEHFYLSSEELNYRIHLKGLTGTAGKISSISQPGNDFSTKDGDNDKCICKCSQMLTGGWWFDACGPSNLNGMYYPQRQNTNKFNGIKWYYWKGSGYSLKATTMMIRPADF

mAng2 = molecular target: T2, mAng2; experiment: competition ELISA, blocking of mAng2 binding to mTie2
T2 construct: also called mouse Ang2
T2 chain: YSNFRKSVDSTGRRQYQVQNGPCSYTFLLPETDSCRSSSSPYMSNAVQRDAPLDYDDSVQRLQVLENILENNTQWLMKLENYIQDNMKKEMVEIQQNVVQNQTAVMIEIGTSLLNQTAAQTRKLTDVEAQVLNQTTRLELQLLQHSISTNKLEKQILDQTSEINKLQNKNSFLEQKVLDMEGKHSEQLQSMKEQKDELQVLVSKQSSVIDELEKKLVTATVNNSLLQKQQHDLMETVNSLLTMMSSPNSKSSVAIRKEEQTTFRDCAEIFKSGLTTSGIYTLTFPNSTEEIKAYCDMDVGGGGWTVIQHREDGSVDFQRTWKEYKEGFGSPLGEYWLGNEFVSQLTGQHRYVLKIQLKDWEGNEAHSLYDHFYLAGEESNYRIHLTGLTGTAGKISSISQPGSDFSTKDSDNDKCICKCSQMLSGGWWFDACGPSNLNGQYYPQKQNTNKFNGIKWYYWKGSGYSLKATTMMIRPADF

[1] = molecular target: T3, recombinant human VEGF165 (human, UniProt P15692-4 27-191); experiment: SPR Biacore T100, Two State Reaction model; KD = kd1/ka1 * (kd2/(kd2 + ka2))
T3 construct: also called hVEGF165; rhVEGF165
Experimental: (§1) Samples are injected for 2 min and allowed to dissociate up to 20 min at a flow rate of 45 μI/min. In between sample injections, the chip surface is regenerated with 100 mM HCl. HBS-EP+(Hepes buffer pH7.4+EDTA) is used as running buffer. Binding curves are fitted using a Two State Reaction model by Biacore T100 Evaluation Software v2.0.1.
(§2) ^{(a)}KD = kd1/kₐ₁ * (kd2/(kd2 + kₐ₂)) ^{(b)}Curves are fitted using a Two State Reaction model by Biacore T100 Evaluation Software v2.0.1

[2] = molecular target: T3, recombinant human VEGF165; experiment: VEGF/VEGFR1 competition AlphaScreen
Experimental: (§3) Finally, streptavidin donor beads (20 μg/ml) are added and after 1 hour of incubation in the dark, fluorescence is measured on the Envision microplate reader.

[3] = molecular target: T3, recombinant human VEGF165; experiment: hVEGF165/hVEGFR2-Fc competition ELISA
human VEGF-D = molecular target: T4, human VEGF-D (human, UniProt O43915 93-201); experiment: binding ELISA on coated VEGF D
T4 construct: also called hVEGF-D
T4 sequence (looked up): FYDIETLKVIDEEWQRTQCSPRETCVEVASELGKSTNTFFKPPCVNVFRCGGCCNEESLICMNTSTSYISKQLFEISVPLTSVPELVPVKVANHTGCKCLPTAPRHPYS
Experimental: (§4) Binding to VEGFB, VEGFC, VEGFD and PIGF is assessed via a solid phase binding ELISA. In brief, VEGFB, VEGFC, VEGFD and PIGF (R&D Systems, Minneapolis, Minn., USA) are coated overnight at 4° C. at 1 μg/mL in a 96-well MaxiSorp plate (Nunc, Wiesbaden, Germany). Wells are blocked with a casein solution (1% in PBS). […] As positive controls serial dilutions of the appropriate receptors are taken along and detected with horseradish peroxidase (HRP)-conjugated goat anti-human IgG, Fc specific antibody (Jackson Immuno Research Laboratories Inc., West Grove, Pa., USA) and a subsequent enzymatic reaction in the presence of the substrate TMB (3,3′,5,5′-tetramentylbenzidine) (Pierce, Rockford, Ill., USA).

[4] = molecular target: T3, recombinant human VEGF165; experiment: VEGF165/hVEGFR1-Fc competition AlphaScreen
Experimental: as §3

[5] = molecular target: T3, recombinant human VEGF165; experiment: SPR Biacore T100, hVEGF165 on chip, Two State Reaction model
Experimental: as §1, §2

[6] = molecular target: T3, recombinant human VEGF165; experiment: hVEGF165/hVEGFR2-Fc competition AlphaScreen
Experimental: as §3

human PIGF = molecular target: T5, human PIGF (human, UniProt P49763-2 21-149, limits assumed); experiment: binding ELISA on coated PIGF
T5 construct: also called hPIGF; PLGF
T5 sequence (looked up): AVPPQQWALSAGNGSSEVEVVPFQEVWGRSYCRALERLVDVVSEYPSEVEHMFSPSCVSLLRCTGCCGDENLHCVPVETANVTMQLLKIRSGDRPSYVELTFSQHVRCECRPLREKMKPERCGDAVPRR
Experimental: as §4

[7] = molecular target: T3, recombinant human VEGF165; experiment: binding ELISA, coated rhVEGF165
[8] = molecular target: T3, recombinant human VEGF165; experiment: VEGF/VEGFR2 competition AlphaScreen
Experimental: as §3

[9] = molecular target: T3, recombinant human VEGF165; experiment: VEGF165/hVEGFR1-Fc competition ELISA
human VEGF-C = molecular target: T6, human VEGF-C (human, UniProt P49767 103-227); experiment: binding ELISA on coated VEGFC
T6 construct: also called hVEGF-C
T6 sequence (looked up): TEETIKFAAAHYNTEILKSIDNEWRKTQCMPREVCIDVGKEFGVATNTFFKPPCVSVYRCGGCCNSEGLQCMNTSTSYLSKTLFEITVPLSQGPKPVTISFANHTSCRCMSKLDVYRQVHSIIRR
Experimental: as §4

human VEGF-B = molecular target: T7, human VEGF-B (human, UniProt P49765-2 22-188, limits assumed); experiment: binding ELISA on coated VEGFB
T7 construct: also called hVEGF-B
T7 sequence (looked up): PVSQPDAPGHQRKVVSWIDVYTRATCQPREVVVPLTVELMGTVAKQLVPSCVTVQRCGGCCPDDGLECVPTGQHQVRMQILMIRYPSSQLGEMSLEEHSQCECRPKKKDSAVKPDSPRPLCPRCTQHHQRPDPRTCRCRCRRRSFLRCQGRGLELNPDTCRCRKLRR
Experimental: as §4

[10] = molecular target: T8, recombinant human VEGF121 (human, UniProt P15692-9 27-147); experiment: binding ELISA, coated rhVEGF121
T8 construct: also called rhVEGF121; hVEGF121
T8 sequence (looked up): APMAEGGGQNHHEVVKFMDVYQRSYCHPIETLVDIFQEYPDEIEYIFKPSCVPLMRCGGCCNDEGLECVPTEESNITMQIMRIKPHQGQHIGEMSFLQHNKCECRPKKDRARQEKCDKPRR
Experimental: Binding to recombinant human VEGF121 is assessed via a solid phase binding ELISA. Briefly, recombinant human VEGF121 (R&D Systems, Minneapolis, Minn., USA) is coated overnight at 4° C. at 1 μg/mL in a 96-well MaxiSorp plate (Nunc, Wiesbaden, Germany). Wells are blocked with a casein solution (1% in PBS).

VEGF [11] = experiment: cell-based or functional assay
VEGF [12] = experiment: cell-based or functional assay; remark: listed apart in the source
[13] = molecular target: T9, recombinant mouse VEGF164 (mouse, UniProt Q00731-2 27-190); experiment: binding ELISA on coated mouse VEGF164
T9 construct: biotinylated in the mVEGFR2 AlphaScreen; also called rmVEGF164; mVEGF164
T9 sequence (looked up): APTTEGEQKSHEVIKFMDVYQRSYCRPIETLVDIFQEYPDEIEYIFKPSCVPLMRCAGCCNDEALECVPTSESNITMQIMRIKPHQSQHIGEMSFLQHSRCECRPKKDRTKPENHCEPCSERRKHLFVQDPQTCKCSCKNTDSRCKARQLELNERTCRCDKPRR
Experimental: Cross-reactivity to mouse VEGF164 is determined using a binding ELISA. […] Wells are blocked with a casein solution (1% in PBS). […] A mouse VEGF164 reactive mAb is included as positive control.

[14] = molecular target: T3, recombinant human VEGF165; experiment: kd1; SPR Biacore T100, hVEGF165 on chip, Two State Reaction model
Experimental: as §1, §2

[15] = molecular target: T3, recombinant human VEGF165; experiment: ka1; SPR Biacore T100, hVEGF165 on chip, Two State Reaction model
Experimental: as §1, §2

VEGF [16] = experiment: cell-based or functional assay; remark: listed apart in the source
[17] = molecular target: T3, recombinant human VEGF165; experiment: Biacore on VEGF165 (Example 5.5)
Experimental: as §1

[18] = molecular target: T3, recombinant human VEGF165; experiment: VEGF165/VEGFR2 blocking AlphaScreen

B1: ANGBII00002 (VHH)
bivalent VHH: EVQLVESGGGLVQAGGSLRLSCAASGFTFDDYALGWFRQAAGKEREGVSCIRCSDGSTYYADSVKGRFTISSDNAKNTVYLQMNSLKPEDTAVYYCAASIVPRSKLEPYEYDAWGQGTLVTVSSGGGGSGGGGSGGGGSGGGGSGGGGSGGGGSGGGGSGGGGSEVQLVESGGGLVQAGGSLRLSCAASGFTFDDYALGWFRQAAGKEREGVSCIRCSDGSTYYADSVKGRFTISSDNAKNTVYLQMNSLKPEDTAVYYCAASIVPRSKLEPYEYDAWGQGTLVTVSS
notes: homodimeric anti-Ang2 VHH; also called 1D01-40gs-1D01
IC50 (read off the curve) (hAng2): ~0.02 nM | IC50 (read off the curve) (mAng2): ~0.03 nM

B2: VEGFBII024 (VHH)
chain: EVQLVESGGGLVQTGDSLRLSCEVSGRTFSSYSMGWFRQAQGKEREFVVAISKGGYKYDSVSLEGRFTISKDNAKNTVYLQINSLKPEDTAVYYCASSRAYGSSRLRLADTYEYWGQGTQVTVSSGGGGSGGGGSGGGGSGGGGSGGGGSGGGGSGGGGSGGGGSEVQLVESGGGLVQAGGSLRLSCTASGSAFKSYRMGWFRRTPGKEDEFVASISWTYGSTFYADSVKGRFTMSRDKAKNAGYLQMNSLKPEDTALYYCAAGAQSDRYNIRSYDYWGQGTQVTVSS
notes: biparatopic bivalent VHH in one chain; also called VEGFBII23B04-40GS-86H09; VEGFBI024
Kd [1]: 0.47 nM | % inhibition [2]: 100% | IC50 [2]: 0.046 nM | % inhibition [3]: 100% | IC50 [3]: 0.292 nM | binding result (human VEGF-D): no binding (tested: 5e-7 M) | % inhibition [4]: 98% | IC50 [4]: 0.069 nM | ka2 [5]: 0.026 s⁻¹ | kd2 [5]: 0.00028 s⁻¹ | % inhibition [6]: 100% | IC50 [6]: 0.05 nM | binding result (human PIGF): no binding (tested: 5e-7 M) | EC50 [7]: 0.32 nM | IC50 [8]: 0.012 nM | % inhibition [9]: 92% | IC50 [9]: 0.326 nM | binding result (human VEGF-C): no binding (tested: 5e-7 M) | binding result (human VEGF-B): no binding (tested: 5e-7 M) | EC50 [10]: 0.325 nM | % inhibition, VEGF HUVEC proliferation assay (VEGF [11]): 96% | IC50 (nM), VEGF HUVEC proliferation assay (VEGF [11]): 0.38 nM | % inhibition, VEGF HUVEC Erk phosphorylation assay (VEGF [12]): 94% | IC50 (nM), VEGF HUVEC Erk phosphorylation assay (VEGF [12]): 0.23 nM | binding result [13]: binds | koff [14]: 0.013 s⁻¹ | kon [15]: 300000 M⁻¹ s⁻¹

B3: VEGFBII037 (VHH)
VHH: DVQLVESGGGLVQPGGSLRLSCAASGRTFSSYSMGWFRQAPGKEREFVVAISKGGYKYDAVSLEGRFTISRDNAKNTVYLQMNSLRPEDTAVYYCASSRAYGSSRLRLADTYEYWGQGTLVTVSS
notes: also called VEGFBII0037
% inhibition, VEGF HUVEC proliferation assay (VEGF [16]): 78% | IC50 (nM), VEGF HUVEC proliferation assay (VEGF [16]): 1.54 nM | Kd [17]: 0.27 nM | % inhibition [18]: 100% | IC50 [18]: 0.3 nM
